Measurements taken from PMC7611853 (Nature cell biology, 2021).
Numbering of substitutions follows the chain as printed. Names may count otherwise.

B1: Cdc19^WT (wild-type pyruvate kinase Cdc19, strep-tagged, recombinant) (enzyme, S. cerevisiae, UniProt P00549 1-500, looked up)
chain: MSRLERLTSLNVVAGSDLRRTSIIGTIGPKTNNPETLVALRKAGLNIVRMNFSHGSYEYHKSVIDNARKSEELYPGRPLAIALDTKGPEIRTGTTTNDVDYPIPPNHEMIFTTDDKYAKACDDKIMYVDYKNITKVISAGRIIYVDDGVLSFQVLEVVDDKTLKVKALNAGKICSHKGVNLPGTDVDLPALSEKDKEDLRFGVKNGVHMVFASFIRTANDVLTIREVLGEQGKDVKIIVKIENQQGVNNFDEILKVTDGVMVARGDLGIEIPAPEVLAVQKKLIAKSNLAGKPVICATQMLESMTYNPRPTRAEVSDVGNAILDGADCVMLSGETAKGNYPINAVTTMAETAVIAEQAIAYLPNYDDMRNCTPKPTSTTETVAASAVAAVFEQKAKAIIVLSTSGTTPRLVSKYRPNCPIILVTRCPRAARFSHLYRGVFPFVFEKEPVSDWTDDVEARINFGIEKAKEFGILKKGDTYVSIQGFKAGAGHSNTLQVSTV
B2: Cdc19^ΔFBP (Cdc19 point-mutant T403E unable to bind FBP, strep-tagged, recombinant) (enzyme, S. cerevisiae, UniProt P00549 1-500, looked up)
chain: B1 chain with T403E

How the values were obtained:
[1] = biological target: the molecule itself; assay: negative-stain TEM, circular dichroism and amyloid-dye
[2] = biological target: the molecule itself; assay: centrifugation

Protein | binding result [1] | binding result [2]
B1 | binds | 
B2 |  | binds
